The Kd is the equilibrium constant for the complex coming apart. Lower therefore signals a tighter complex.

Drawing on paper PMC7549315, this text covers Kd for one molecule.

For this series, the target named is GFP-SAPwt (SAP domain of SAF-A) (UniProt Q00839 8-42). As to the kind of experiment: EMSA. Background: Mobility shift assays separate free from complexed probe on a gel.
Chain of GFP-SAPwt (SAP domain of SAF-A) (Q00839 8-42): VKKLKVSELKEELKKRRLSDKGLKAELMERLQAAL

B1: AT-rich SAR DNA (dsDNA)
DNA 1: AATTCAGAAAATAATAAAATAAAACTAGCTATTTTATATTTTTTC
DNA 2: GAAAAAATATAAAATAGCTAGTTTTATTTTATTATTTTCTGAATT
For B1, binding was put at a Kd of 16.5 µM.
